Laboratory results published in the DeepSol protein solubility set.

Test: soluble on expression in E. coli; label from the status in PepcDB or PDB records

| Sequence | soluble on expression in E. coli |
| --- | --- |
| MSLDLGSNSFHMVIARVVDGAMQIIGRLKQRVHLADGLGPDNMLSEEAMTRGLNCLSLFAERLQGFSPASVCIVGTHTLRQALNATDFLKRAEKVIPYPIEIISGNEEARLIFMGVEHTQPEKGRKLVIDIGGGSTELVIGENFEPILVESRRMGCVSFAQLYFPGGVINKENFQRARMAAAQKLETLTWQFRIQGWNVAMGASGTIKAAHEVLMEMGEKDGIITPERLEKLVKEVLRHRNFASLSLPGLSEERKTVFVPGLAILCGVFDALAIRELRLSDGALREGVLYEMEGRFRHQDVRSRTASSLANQYHIDSEQARRVLDTTMQMYEQWREQQPKLAHPQLEALLRWAAMLHEVGLNINHSGLHRHSAYILQNSDLPGFNQEQQLMMATLVRYHRKAIKLDDLPRFTLFKKKQFLPLIQLLRLGVLLNNQRQATTTPPTLTLITDDSHWTLRFPHDWFSQNALVLLDLEKEQEYWEGVAGWRLKIEEESTPEIAAEGHHHHHH | not soluble |
| NAMYTITDIAPTDAEFIALIAALDAWQETLYPAESNHLLDLSQLPPQTVIALAIRSPQGEAVGCGAIVLSEEGFGEMKRVYIDPQHRGQQLGEKLLAALEAKARQRDCHTLRLETGIHQHAAIALYTRNGYQTRCAFAPYQPDPLSVFMEKPLFADLRSAAL | soluble |
| MQTSNITNHERNDSSWMSTVKSTTEVSWNKLSFCDILLKIITFGIYSPHETLAEKHSEKKLMDSFSPSLSQDKMDGEFAHANIDGISIRLCLNKGICSVFYLDGDKIQSTQLSSKEYNNLLSSLPPKQFNLGKVHTITAPVSGNFKTHKPAPEVIETAINCCTSIIPNDDYFHVKDTDFNSVWHDIYRDIRASDSNSTKIYFNNIEIPLKLIADLINELGINEFIDSKKELQMLSYNQVNKIINSNFPQQDLCFQTEKLLFTSLFQDPAFISALTSAFWQSLHITSSSVEHIYAQIMSENIENRLNFMPEQRVINNCGHIIKINAVVPKNDTAISASGGRAYEVSSSILPSHITCNGVGINKIETSYLVHAGTLPSSEGLRNAIPPESRQVSFAIISPDV | not soluble |
| MSLSSLLIDLKGKELEQEEVELLSHPLVAGLILFTRNFENREQIQELIRSVRQRVKKPLLITVDQEGGRVQRFRDGFTMLPSMQAFQETLSATEQVSFAKEAGWQMAAEMIALDIDLSFAPVLDLGHECRAIGDRSFSSDVKSAVNLATAFIDGMHQAGMASTGKHFPGHGHVLADSHLETPYDDRTKEEIFSGDLQPFQQLISQNKLDAIMPAHVIYSQCDSQPASGSKYWLKEILRKKLNFQGTIFSDDLGMKGAGVMGNFVERSKKALNAGCDLLLLCNEREGVIQVLDNLKLTENQPHFMARQARLQSLFKRRVINWNDLISDQRWRLNYQKLADIQSRWLDIQAAKNDEGGSHHHHHH | soluble |
| MSLATNKKEIIRLLEEIATYMELKGENSFKISAFRKAAQAIELDSRSLSEIDDFTKISGIGKTTGEIIQRYLDSGECPELEELKKEVPAGLVPLLDVPGLGGKKLSRLYHELGVVDKDTLLQEAENGHIEALKGFGKKSAEKMAEAVREMGERPDRYPLNDVLPIIQKVEAYLAEIAPIETFAQAGSLRRLRETVKDLDYVIATEKPEDVQKALLAFPLITDVIGAGETKVSAVLEDNITISVDFRLVEKKAFATTLHHFTGSKDHNIKMRQLAKQSNEKISEYGVEQEDGTVRHFESEKTFFEHFKIPFLPPEVRRDGTEIERVTKDTKFLELSDIRGDLHMHTTWSDGAYAIPEMIEACIAKGYEYMVITDHGKFLRVANGLDEKRLLEQQAEIKKIAAKYPEIDVYSGVEMDILADGSLDFDDETLKQLDFVIASIHSSFQQSEEEIMKRLKTACENPYVRLIAHPTGRIVVKRKPYHVNMKELIQLAKSTGTALELNANPQRLDLNREHLEMAHAAGVPIAINTDAHDTKHLDFMSIGVRAATKAWLGKSAILNTKTAAEFKQFLQNKEGHHHHHH | soluble |
| MSMSDIGGKDRLNDEKRVTVRLSRSMVEEMEDLVNRDEYESVSDLVRKAVSALLESRGVNSDFLPVQIMVPKNLIEKLGKDSTKPVNLSLDEFSSLILDRINGLTVRETIKKIVHEENIK | not soluble |
| VLQTRNYTCGPAALVTVLQRLGVNTTEDELAGLAGTTEDGTTMQGLLEASRAKGVNATGMKLNISELKENMIAYTINDGTGHYTVINGITNDTVKLADPSLGNIEMNIEEFTEIYSGYALVINDPNNPR | not soluble |
| AHHHHHHGSSNIVKGIVKWVEGEQFIGGIEGENCSVILGEGGISPMKLLLLSVAGCTAYDVVMILRKMREPIRGLRVEIEGVRREEHPRVYKEVTIHYKIYGKVDEKKARRAIELSQEKYCSASAHLKLGGTIVRYTLEIFDDEPPSHAEG | soluble |
| MRNIDFSPLYRHAIGFDRLFNLVENSANKPSQQNGYPPYNIEQKDENNYRITMAVAGFSEDALTISQNEHMLIVSGDITSSEIKPTYVYQGIAERNFERKFQLADYVTVSAASMENGLLHIDLVREVPEAVQARKIAINK | not soluble |
| GPGSMGVVLRELRMRQESATFLLAAVSVNPLLRCAWEDLACLVSRETQLAELDAALDGLEPFFMVDIFAAEVRGLLGVTPVSSARLRIAAAAASAPSDGFEPSPPCSAPPEGHAATTTATAAKAGTRTSPLLPPPRTNAGATPPIPAAALSNAWECFSLLFPDTPFCLSQLAHFYYHQRNRLDRAEALYQRIRALDPHYLAILYDYSNVLYTKRDRLGLSSLAQSVYQADAFRAETNFAVGNYYVLLGQHDRAALHFHRATAIDPQCAEAWLLLGHAYVEVKNTTAAVEAYRTAVELNERDYRGWYNLGQIYELLEAYHHALYYYWHTTSLRPADPGMWVAVANCLEHDGRIAESIACLERAETYDSSSSPSYPAYVRRIATHHIANSSYTRACVYLEKLAQSPAASTEDLLLALPFIVQHYVQRARSSVEGFARSSSYDTVLFSPGANNVSLMSSPASGAVAAGRTALHHARAAAALQHLNKAEEHLSTMAELVMPSGHNGAGNEEAAQTPATSAAAGESEQGGAENTAPQRAAEDAPHRRRTRQPRSGAAANASVSASASAALAAVAASTAPSAGDVPPVAFVRSRHQEIGMLRAQAMHLLQIGAGASGSTIPVAASASASVATQPSSSSSQQQQQQQQQRHQQHRNPFVSQLLGRYQ | not soluble |
| MEADVEQQALTLPDLAEQFAPPDIAPPLLIKLVEAIEKKGLECSTLYRTQSSSNLAELRQLLDCDTPSVDLEMIDVHVLADAFKRYLLDLPNPVIPAAVYSEMISLAPEVQSSEEYIQLLKKLIRSPSIPHQYWLTLQYLLKHFFKLSQTSSKNLLNARVLSEIFSPMLFRFSAASSDNTENLIKVIEILISTEWNERQPAPALPPKPPKPTTVAN | soluble |
| MGSDKIHHHHHHMNWMDQPDLYSRYKIFLEILQSKEHISLFDPRLKRYTDILIDLEKPFTTWSTPNHIILVHKTLCLRHFPNKYESSAKRPVLILPPQAGHHSNLADYSPAQSLVRVFHRYGYDVYVTQWLSATTEYKDLGIEDYIRLTDEAVEEVRKRTGVYKIHLVGQCQGGWQASIYTSLFPDKISTLVSAAAPIDVNAKPSPIVEYAQKLSIDVFRFMVNSGGGVMPGKFILQGFKSMQPEEHYVRKYFRLWQMIKEGDEDGVKRFIHFENWYQYTQNLPGRFYLEIVKNIFKENNLTKPGSFQLDGRPVDLRNISCPVIIMAGKKDHITPPEQAFALKNYISTPAADVIEILTEGGHIGTLMGTESLREDWTAVNEVLKLAI | not soluble |
| MSYLIRVQIPDEPGSLGRVAEAVGLIGGNISSVDVVEAFSNGTVTDDMVVELPAGTMADELITAAHEVEGVEVDSIRPFSGRVDRRGQ | soluble |
| MGSDKIHHHHHHMNIDEAKQLANYFSDGSPGYILEFNNLEWDLYTKKIVGFGIQERFGGSKGNSFKEFLVSEDISDHLKFKLIYSLNETMKQIASIRQFENPSSYKSPKMNPLVTLLIEEAYHKKDSARLLNGTKFSKEVNLEYIQQLPTRISKDIQNKDFDSVLTKSNTMIDEVLKYIIENTKGKSIDNNTVRSKDLRNQAFERLNIKIDKDMDKRIKALVGALNTLSDKILEMRNSQGDAHAQGSRRIVINEEEAILTANSAMILCEYLFRKYEKRKRFSDAKES | not soluble |
| MNNNVITRFAPSPTGFLHIGSARTALFNYLFARHHNGKFLLRIEDTDKERSTKEAVEAIFSGLKWLGLDWNGEVIFQSKRNNLYKEAALKLLQNGKAYYCFTRQEEIERQRQQALENKQHFIFNSEWRDKDPSIYPTDIKPVIRLKTPREGSITIHDTLQGEVVIENSHIDDMVLLRADGTATYMLAVVVDDHDMGITHIIRGDDHLTNTARQLAIYQAFGYAVPSMTHIPLIHGADGAKLSKRHGALGIEAYKDMGYLPESLCNYLLRLGWSHGDDEIISMTQAIDWFNLDSLGKSPSKLDFAKMNSLNAHYLRMLDNDSLTSKTVEILEQNYNTLLRHLPYREEFGGNTERSTAAYIDIREDASTGLTYKLPLAVELPKKFKISEQEIGYIKQAMPSLLVRSETLLELTRLAQIYLVDSPIIYSQDSKEIIENCDKNLIKQIIENLSELEQFDKESVQNKFKEIAAANDLKLNDIMKPVRALITGMTASPSIFEIAEILGKENILKRLKII | soluble |
| MKFEAIAVEKIPLIHEGDNLPSIICEKIGLQDRDIMIIASTIVAKAEGEIFRLEDITPGEEALEIAARTGKDPRFIQAVLSKSREVFVETPFMLVTTLAGHTCVNAGIDESNIENGFLLYPPENPDASALKIGKELEKLSGKKLSIIITDTNGRAFKIGQTGVAIGIYNIKPVKRWIGEKDLFGKVLEITEQAIADELAGAANLLMGEGAGGIPVVIIRGLDYYCEGDTSIKESYRPENMDVIKQGLRCLRNKK | not soluble |
| MNPLAQKLNDEIKQSSPEVLDMMSQLGKDMFYPKGILSQSAEAKRTTYNATIGMATKKEGKMYANSLNQMFNDLTPDEIFPYAPPQGVEELRDLWQKKMLKENPDLKSKSISRPIVTNALTHGLSLVADLFVDTDDTVLLPTHNWGNYKLVFSTRHGAHIDTYSIFDNSGHFTTSELVKTLKEYKKDKVIIILNYPNNPTGYTPNKEEVNTIVNAIEELANKGTKVVTVVDDAYYGLFYEEVYQQSIFTALTQVKSSNLLPVRLDGATKEFFSWGFRVGFMTFGIDHETLKNALEAKVKGLIRSNISSSPLPSQSAIKHVLKHHEQFDKEIDQNINILKERYEVTKQVVYDNKYAKYWQAYDFNSGYFMSLKLNQVDPEELREHLINNYSIGIIALNSTDIRIAFSCVEKEDIPYVFESIANAIDDIK | not soluble |
| MTKKRVALIFGGNSSEHDVSKRSAQNFYNAIEATGKYEIIVFAIAQNGFFLDTESSKKILALEDEQPIVDAFMKTVDASDPLARIHALKSAGDFDIFFPVVHGNLGEDGTLQGLFKLLDKPYVGAPLRGHAVSFDKALTKELLTVNGIRNTKYIVVDPESANNWSWDKIVAELGNIVFVKAANQGSSVGISRVTNAEEYTEALSDSFQYDYKVLIEEAVNGARELEVGVIGNDQPLVSEIGAHTVPNQGSGDGWYDYNNKFVDNSAVHFQIPAQLSPEVTKEVKQMALDAYKVLNLRGEARMDFLLDENNVPYLGEPNTLPGFTNMSLFKRLWDYSDINNAKLVDMLIDYGFEDFAQNKKLSYSFVSLGEEKIGKFN | soluble |
| MKFLSFIFLVSLCAVTSQINAQAPELPLDKIKLPPGFSISVWANVPDARTMTLGDKGTVFVGSKSAGNVYAITENAGKRQIRIIASKLKMPNGVAFHDGALYVSSVNRILRFDNIENTLDQPLPPRIITADYPKETYHGWRFIAFGPDGWLYVPVGSSCNVCETDLEHYALISRIRPDGSNYEVFAKGVRNTEGFDWHPVTKALWFTDISREWMGDNLPPDELNHASNQGLDFGFPYCHGKEVSDPKLGAKRDCNKFIPPAVELDPHVAPMGMRFYTGTMFPAEYHNGIFIAEHGSWNRSTKIGYRLEWVQLEVNEVARKEIFAEGWLQENEAWGRPVDVLVMPDGALLVSDDMAGVVYRISYDQP | not soluble |
